Measured values: patent US20250002886

Tested on: T1, MG3-6/3-4 chimera (MG3-6 1-742 + MG3-4 743-1134) (synthetic construct)
T1 sequence: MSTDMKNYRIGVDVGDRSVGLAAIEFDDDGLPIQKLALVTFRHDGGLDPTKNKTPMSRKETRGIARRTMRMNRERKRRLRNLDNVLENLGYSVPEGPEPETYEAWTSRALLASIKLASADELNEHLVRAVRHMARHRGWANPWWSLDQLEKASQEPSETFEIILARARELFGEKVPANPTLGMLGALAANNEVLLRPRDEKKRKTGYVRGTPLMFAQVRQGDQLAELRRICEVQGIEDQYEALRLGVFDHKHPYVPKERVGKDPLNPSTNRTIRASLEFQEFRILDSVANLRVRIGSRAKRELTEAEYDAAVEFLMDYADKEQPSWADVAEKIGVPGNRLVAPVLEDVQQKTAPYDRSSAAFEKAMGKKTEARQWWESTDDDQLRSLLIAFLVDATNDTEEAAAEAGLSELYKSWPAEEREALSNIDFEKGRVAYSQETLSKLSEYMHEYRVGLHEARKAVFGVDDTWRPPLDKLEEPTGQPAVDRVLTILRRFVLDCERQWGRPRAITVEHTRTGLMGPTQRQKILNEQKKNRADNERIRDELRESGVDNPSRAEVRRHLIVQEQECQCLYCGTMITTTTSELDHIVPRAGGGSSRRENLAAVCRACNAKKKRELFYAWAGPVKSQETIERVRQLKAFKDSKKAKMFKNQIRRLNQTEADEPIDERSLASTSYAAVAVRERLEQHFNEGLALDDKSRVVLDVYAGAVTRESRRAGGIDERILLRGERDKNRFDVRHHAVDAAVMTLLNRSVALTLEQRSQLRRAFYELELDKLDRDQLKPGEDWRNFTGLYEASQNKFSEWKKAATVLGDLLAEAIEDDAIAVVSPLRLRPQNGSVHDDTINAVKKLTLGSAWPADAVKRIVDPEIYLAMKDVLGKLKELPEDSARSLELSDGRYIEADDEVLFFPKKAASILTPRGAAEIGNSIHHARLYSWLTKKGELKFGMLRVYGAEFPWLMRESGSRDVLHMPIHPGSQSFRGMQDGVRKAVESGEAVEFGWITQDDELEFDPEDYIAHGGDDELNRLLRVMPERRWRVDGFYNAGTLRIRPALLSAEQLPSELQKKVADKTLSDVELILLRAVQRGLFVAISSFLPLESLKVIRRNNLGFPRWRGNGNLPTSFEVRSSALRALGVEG
Assay: cell_activity
Conditions: 2'-OMe and PS at termini; Hep3B; 25.0 % in PHH; PAM NNAAA(A/T)N

**Q.** “CCAUCUAUCAGCUGGGAAGAUAGUUGAGAAUCGAAAGAUUCUUAAUAAGGCAUCCUUCCGAUGCUGACUUCUCACCGUCCGUUUUCCAAUAGGAGCGGGCGGUAUGUUUU / CCATCTATCAGCTGGGAAGATATCAAATG / CATTTGATATCTTCCCAGCTGATAGATGG [hH364-32 sgRNA ; human HAO1 hH364-32 target]” was tested. Which activity did it give?
**A.** The activity was 60 % indel.
